Assay [1] deals with T1, purified ErbB2 ECD-polyhistidine-tagged protein (human, UniProt P04626 23-653).
T1 construct: also called CBECD; purified extracellular domain of ErbB2 with a His tag; not shown: polyhistidine tag
Kind of assay: phage ELISA on coated CBECD, BSA as control. The method, then:
SfmECDAP labeled wells were plated with 250 ng of a purified ErbB2 ECD-alkaline phosphatase fusion protein; CBECD labeled wells were plated with 250 ng of a purified ErbB2 ECD-polyhistidine-tagged protein; bovine serum albumin (denoted BSA) was used as a negative target control. E12 and CB1 are peptide phage clones identified independently that display an identical (ErbB2-binding) peptide. E12CB1-NA peptide phage clones were constructed to present, with and without a glycine-glycine-alanine linker, a shortened form of the peptide. […] G78 is a peptide phage clone that binds strongly to the Grb7 SH2 domain, used here as a negative peptide phage control. Library phage also serve as a negative peptide phage control. 9G6 is an antibody to the ECD of ErbB2.

Assay [2] has as its target T2, native, intact ErbB2 extracted from the membranes of human breast cancer cells (human, UniProt P04626 23-1255).
T2 construct: Whole native receptor from cell membrane lysates, captured on plates by an antibody to the intracellular domain of ErbB2; Whole entry named; also called ErbB2 in solubilized membrane preparations / lysates of BT474 and SKBR3 cells
The assay is described as follows: phage ELISA on captured membrane lysates. The method, then:
The above identified peptide phage specifically bind to native, intact ErbB2 extracted from the membranes of human breast cancer cells that overexpress ErbB2. Plates were coated with 1 μg of an antibody that binds to the intracellular domain of ErbB2, followed by 100 μl of solubilized membrane preparations from two different breast cancer cell lines that overexpress ErbB2 (BT474 and SKBR3), and probed with CB1 peptide-phage, control library phage, and 9G6 anti-ErbB2. MCF7 cells serve as a (relative) negative target control, as MCF7 breast cancer cells express only a low level of ErbB2.
In general terms: In an ELISA, binding on a coated surface is turned into a signal by an enzyme label.

B1: 02-140 peptide phage clone (ErbB2-binding peptide 16) (peptide)
peptide: WTGWCLNPEESTWGFCSGYI
notes: From an EC-1 biased peptide phage library; also called EBP-16
Turning to B1, the binding result in assay [1] and in assay [2] was “binds” in each case.

B2: 02-135 peptide phage clone (ErbB2-binding peptide 17) (peptide)
peptide: WTGWCFDDNHSTWGFCTGSF
notes: From an EC-1 biased peptide phage library; also called EBP-17
B2: the binding result in assay [1] and in assay [2] was “binds” throughout.

B3: 02-124 peptide phage clone (ErbB2-binding peptide 14) (peptide)
peptide: WTGWCLNPEESTWGFCRSAG
notes: From an EC-1 biased peptide phage library; also called EBP-14
Regarding B3, the binding result in assay [1] and in assay [2] was “binds” throughout.

B4: 02-137 peptide phage clone (ErbB2-binding peptide 15) (peptide)
peptide: WTGWCLSPEESTWGFCRSAG
notes: From an EC-1 biased peptide phage library; also called EBP-15
Take B4: the binding result in assay [1] and in assay [2] was “binds” throughout.

The record behind these values is patent US20030216309A1 (UNIVERSITY OF VERMONT AND STATE AGRICULTURAL COLLEGE, published 2003).
